Data as given in publication PMC8287954, “Assembly of higher-order SMN oligomers is essential for metazoan viability and requires an exposed structural motif present in the YG zipper dimer” (Nucleic Acids Research, 2021).
Several values for one entry are separate records, joined by “and”; a condition that tells them apart may be missing. Identical values can stand only once.

B2: Drosophila melanogaster Gemin2 (natural protein, UniProt Q9VVX0 1-245, looked up)
chain: MQHEPEDQTFQLQALEICEPDSSFDPQKPPESGEEYLMHMFYERKRCPAVVTKRSSKIRNNTGNTTLEMLDNPELPPFKCLLPTPEWRDEQVKSFQAARSQVLVLRKELANNNYDQSGEPPLTSDQEKWKEFCRNQQPLLSTLLHLTQNDLELLLEMLSKWLQDPNTTVDLLHDVWLARWLYATLVCLHLPLEPHVFSTLRYIARTCIHLRNQLKEDEVQRAAPYNLLLTLTVQVFAQNDFKDYI
notes: Drosophila melanogaster Gemin2 (dmGemin2); also called dmGemin2; dmG2; source: E. coli BL21(DE3), purified (Ni-NTA, chitin beads, Superdex 200)

Columns and labels:
[1] = target: the molecule itself; assay: SEC-MALS; Superdex 200 10/300 GL, 0.5 ml/min, room temperature (20°C), 50 mM HEPES-NaOH pH 7.5, 250 mM NaCl, 5 mM DTT; self-association of the SMN•G2 unit, (SMN•G2)n
[2] = target: the molecule itself; assay: AUC; sedimentation equilibrium, 4°C, 20 mM Tris-HCl pH7.4, 200 mM NaCl, 5 mM DTT; monomer to dimer
[3] = target: the molecule itself; assay: SEC-MALS; Superdex 200 10/300 GL, 0.5 ml/min, room temperature (20°C), 50 mM HEPES-NaOH pH 7.5, 250 mM NaCl, 5 mM DTT; self-association of the SMN•G2 unit, (SMN•G2)n; remark: listed apart in the source
[4] = target: the molecule itself; assay: cross-linking; disulfide cross-linking of single-cysteine MBP-YG box fusions, 5 μM, 20 mM Tris-HCl pH 7.4, 200 mM NaCl, 1 mM EDTA, 10 mM maltose, 160 μM diamide, 1 h, 20°C; non-reducing SDS-PAGE
[5] = target: the molecule itself; assay: not stated; shown in Supplementary Figure S2; method not given
[6] = target: B2; assay: SEC; complex reconstituted from separately purified proteins, two molar excess of dmGemin2, HFS tag cut with Ulp1, second Ni-NTA pass, Superdex 200 16/60 at 20°C, 20 mM Na/KPO4 pH 7.0, 300 mM NaCl, 1 mM DTT; settings: both partners purified
[7] = target: the molecule itself; assay: AUC; sedimentation velocity, 20 mM HEPES–NaOH pH 7.5, 300 mM NaCl, 0.1 mM TCEP, 0.16–1.0 mg/ml, 40 000 rpm; 25°C and 4°C (smaller species at 4°C)

B1: Hs^1-275-GCN4(IL) chimera•Gemin2 (complex)
chain 1: not shown
chain 2: MAWVPAESAVEELMPRLLPVEPCDLTEGFDPSVPPRTPQEYLRRVQIEAAQCPDVVVAQIDPKKLKRKQSVNISLSGCQPAPEGYSPTLQWQQQQVAQFSTVRQNVNKHRSHWKSQQLDSNVTMPKSEDEEGWKKFCLGEKLCADGAVGPATNESPGIDYVQIGFPPLLSIVSRMNQATVTSVLEYLSNWFGERDFTPELGRWLYALLACLEKPLLPEAHSLIRQLARRCSEVRLLVDSKDDERVPALNLLICLVSRYFDQRDLADEPS
**Q.** For B1, which “stoichiometry N” value [1] is on record?
**A.** Its value is 2.

**Q.** B2 was tested. Which Kd [2] did it give?
**A.** The Kd was 33.4 ± 5 µM.

B3: Schizosaccharomyces pombe SMN•Gemin2 complex (complex)
chain 1: MDQSQKEVWDDSELRNAFETALHEFKKYHSIEAKGGVSDPDSRLDGEKLISAARTEESISKLEEGEQMINQQTETTLEGDTHIQQFADNKGLSDEKPETRAAETHQEFMEVPPPIRGLTYDETYKKLIMSWYYAGYYTGLAEGLAKSEQRKD
chain 2: MPSKRKRNPLQYQTSGSLDEETNQRSAFPQIDNNSASESLEYDIPLDGLDYLATVREEARKLVPFVAARREPETRETIPLRKLEIEAGKKSFDPFLRYLLNIIDKEGERLEQYMESSSLDASILPKNLQQWRVYIEHKAPCWAILAVVDLATVLEILESLSSWLEKDAIDLQSQWIFCFCYKLPELLNGEDISTLRSVLKSLRSTHTSFPALQMSASALQAVLVYRYGQKDLFQT
notes: S. pombe SMN (Smn1p); S. pombe Gemin2; also called spSMN•G2; wild-type Smn1p; source: bacterial co-expression, purified as previously described (24)
**Q.** Which “stoichiometry N” value [3] does the source give for B3 here?
**A.** The value was 2 and 4.

B4: spSMN(A145Q)•Gemin2 (complex, Schizosaccharomyces pombe)
chain 1: MDQSQKEVWDDSELRNAFETALHEFKKYHSIEAKGGVSDPDSRLDGEKLISAARTEESISKLEEGEQMINQQTETTLEGDTHIQQFADNKGLSDEKPETRAAETHQEFMEVPPPIRGLTYDETYKKLIMSWYYAGYYTGLAEGLQKSEQRKD
chain 2: MPSKRKRNPLQYQTSGSLDEETNQRSAFPQIDNNSASESLEYDIPLDGLDYLATVREEARKLVPFVAARREPETRETIPLRKLEIEAGKKSFDPFLRYLLNIIDKEGERLEQYMESSSLDASILPKNLQQWRVYIEHKAPCWAILAVVDLATVLEILESLSSWLEKDAIDLQSQWIFCFCYKLPELLNGEDISTLRSVLKSLRSTHTSFPALQMSASALQAVLVYRYGQKDLFQT
notes: S. pombe SMN (Smn1p); S. pombe Gemin2; also called spA145Q; source: recombinant; yeast SMN•G2 complexes purified as previously described (24)
**Q.** Does B4 bind [3]?
**A.** Result: binds

B5: spSMN(A141Q)•Gemin2 (complex, Schizosaccharomyces pombe)
chain 1: MDQSQKEVWDDSELRNAFETALHEFKKYHSIEAKGGVSDPDSRLDGEKLISAARTEESISKLEEGEQMINQQTETTLEGDTHIQQFADNKGLSDEKPETRAAETHQEFMEVPPPIRGLTYDETYKKLIMSWYYAGYYTGLQEGLAKSEQRKD
chain 2: MPSKRKRNPLQYQTSGSLDEETNQRSAFPQIDNNSASESLEYDIPLDGLDYLATVREEARKLVPFVAARREPETRETIPLRKLEIEAGKKSFDPFLRYLLNIIDKEGERLEQYMESSSLDASILPKNLQQWRVYIEHKAPCWAILAVVDLATVLEILESLSSWLEKDAIDLQSQWIFCFCYKLPELLNGEDISTLRSVLKSLRSTHTSFPALQMSASALQAVLVYRYGQKDLFQT
notes: S. pombe SMN (Smn1p); S. pombe Gemin2; also called spA141Q; source: recombinant; yeast SMN•G2 complexes purified as previously described (24)
**Q.** Does B5 bind [3]?
**A.** Result: binds

B6: spSMN(G143V)•Gemin2 (complex, Schizosaccharomyces pombe)
chain 1: MDQSQKEVWDDSELRNAFETALHEFKKYHSIEAKGGVSDPDSRLDGEKLISAARTEESISKLEEGEQMINQQTETTLEGDTHIQQFADNKGLSDEKPETRAAETHQEFMEVPPPIRGLTYDETYKKLIMSWYYAGYYTGLAEVLAKSEQRKD
chain 2: MPSKRKRNPLQYQTSGSLDEETNQRSAFPQIDNNSASESLEYDIPLDGLDYLATVREEARKLVPFVAARREPETRETIPLRKLEIEAGKKSFDPFLRYLLNIIDKEGERLEQYMESSSLDASILPKNLQQWRVYIEHKAPCWAILAVVDLATVLEILESLSSWLEKDAIDLQSQWIFCFCYKLPELLNGEDISTLRSVLKSLRSTHTSFPALQMSASALQAVLVYRYGQKDLFQT
notes: S. pombe SMN (Smn1p); S. pombe Gemin2; also called spG143V; source: recombinant; yeast SMN•G2 complexes purified as previously described (24)
**Q.** Does B6 bind [3]?
**A.** Result: binds

B7: spSMN(Y137H)•Gemin2 (complex, Schizosaccharomyces pombe)
chain 1: MDQSQKEVWDDSELRNAFETALHEFKKYHSIEAKGGVSDPDSRLDGEKLISAARTEESISKLEEGEQMINQQTETTLEGDTHIQQFADNKGLSDEKPETRAAETHQEFMEVPPPIRGLTYDETYKKLIMSWYYAGYHTGLAEGLAKSEQRKD
chain 2: MPSKRKRNPLQYQTSGSLDEETNQRSAFPQIDNNSASESLEYDIPLDGLDYLATVREEARKLVPFVAARREPETRETIPLRKLEIEAGKKSFDPFLRYLLNIIDKEGERLEQYMESSSLDASILPKNLQQWRVYIEHKAPCWAILAVVDLATVLEILESLSSWLEKDAIDLQSQWIFCFCYKLPELLNGEDISTLRSVLKSLRSTHTSFPALQMSASALQAVLVYRYGQKDLFQT
notes: S. pombe SMN (Smn1p); S. pombe Gemin2; also called spY137H; source: recombinant; yeast SMN•G2 complexes purified as previously described (24)
**Q.** Does B7 bind [3]?
**A.** Result: binds

B8: MBP-spSMN YG box (112–152) A141Y, A145C (domain or fragment, Schizosaccharomyces pombe, UniProt Q09808 112-152, looked up)
chain: PPPIRGLTYDETYKKLIMSWYYAGYYTGLYEGLCKSEQRKD
notes: S. pombe SMN, residues 112-152; SMN residues fused to the penultimate Thr of E. coli MBP with a Gly-Ser linker; also called A145C mutant with an A141Y substitution; source: E. coli BL21(DE3), purified (amylose resin); not shown: MBP, N-terminal, kept
**Q.** Does B8 bind [4]?
**A.** Result: binds

B9: MBP-dmSMN^186-220 (domain or fragment, Drosophila melanogaster, UniProt Q9VV74 186-220, looked up)
chain: GAEQDFVAMLTAWYMSGYYTGLYQGKKEASTTSGK
notes: The SEC-SAXS methods print 189-220 for this fusion; also called MBP-dmSMN^189–220; source: expressed from pETDuet at 37°C, purified (amylose resin, Superdex-200); not shown: MBP, N-terminal, kept
**Q.** B9 was tested. Which “stoichiometry N” value [5] did it give?
**A.** The value was 4 and 8.

B10: Drosophila melanogaster SMN (natural protein, UniProt Q9VV74 1-226, looked up)
chain: MSDETNAAVWDDSLLVKTYDESVGLAREALARRLADSTNKREEENAAAAEEEAGEISATGGATSPEPVSFKVGDYARATYVDGVDYEGAVVSINEEKGTCVLRYLGYENEQEVLLVDLLPSWGKRVRREQFLIAKKDEDEQLSRPKASAGSHSKTPKSSRRSRISGGLVMPPMPPVPPMIVGQGDGAEQDFVAMLTAWYMSGYYTGLYQGKKEASTTSGKKKTPKK
notes: Drosophila melanogaster SMN (dmSMN); In the reconstitution the HFS tag was cut off with Ulp1 after dmGemin2 was added; also called dmSMN; source: E. coli BL21(DE3), purified (Ni-NTA after lysis in guanidine•HCl, urea wash)
**Q.** Does B10 bind [6]?
**A.** Result: binds

**Q.** Does B10 bind [7]?
**A.** Result: binds

B11: MBP-hsSMN^252-294(C289A, N283C) (domain or fragment, human, UniProt Q16637 252-294, looked up)
chain: DSLDDADALGSMLISWYMSGYHTGYYMGFRQCQKEGRASHSLN
notes: human SMN YG box, residues 252-294; also called hsSMN^N283C; source: E. coli BL21(DE3), purified (amylose resin); not shown: MBP, N-terminal, kept
**Q.** Does B11 bind [4]?
**A.** Result: binds

B12: MBP-hsSMN^252-294(C289A, Y277C) (domain or fragment, human, UniProt Q16637 252-294, looked up)
chain: DSLDDADALGSMLISWYMSGYHTGYCMGFRQNQKEGRASHSLN
notes: human SMN YG box, residues 252-294; also called hsY277C; source: E. coli BL21(DE3), purified (amylose resin); not shown: MBP, N-terminal, kept
**Q.** Does B12 bind [4]?
**A.** Result: binds

B13: MBP-hsSMN^252-294(C289A, S262C) (domain or fragment, human, UniProt Q16637 252-294, looked up)
chain: DSLDDADALGCMLISWYMSGYHTGYYMGFRQNQKEGRASHSLN
notes: human SMN YG box, residues 252-294; source: E. coli BL21(DE3), purified (amylose resin); not shown: MBP, N-terminal, kept
**Q.** Does B13 bind [4]?
**A.** Result: binds

B14: MBP-hsSMN^252-294(C289A, T274C) (domain or fragment, human, UniProt Q16637 252-294, looked up)
chain: DSLDDADALGSMLISWYMSGYHCGYYMGFRQNQKEGRASHSLN
notes: human SMN YG box, residues 252-294; also called hsT274C; source: E. coli BL21(DE3), purified (amylose resin); not shown: MBP, N-terminal, kept
**Q.** Does B14 bind [4]?
**A.** Result: binds

B15: MBP-hsSMN^252-294(C289A, R281C) (domain or fragment, human, UniProt Q16637 252-294, looked up)
chain: DSLDDADALGSMLISWYMSGYHTGYYMGFCQNQKEGRASHSLN
notes: as for B13
**Q.** Does B15 bind [4]?
**A.** Result: binds
